Values quoted from earlier work as cited in patent US5998408A, “Triterpene derivatives with immunosuppressant activity” (Merck & Co., Inc., priority 1997, dated 1999).

Molecular target: T1, Kv 1.3 channels (CHO cells transfected with Kv 1.3 channels) (Homo sapiens, UniProt P22001)
T1 construct: expressed in transfected cells; host or cells: CHO cells
Conditions: stated property of the reference blocker used to set the efflux window

T1 sequence (P22001 whole entry): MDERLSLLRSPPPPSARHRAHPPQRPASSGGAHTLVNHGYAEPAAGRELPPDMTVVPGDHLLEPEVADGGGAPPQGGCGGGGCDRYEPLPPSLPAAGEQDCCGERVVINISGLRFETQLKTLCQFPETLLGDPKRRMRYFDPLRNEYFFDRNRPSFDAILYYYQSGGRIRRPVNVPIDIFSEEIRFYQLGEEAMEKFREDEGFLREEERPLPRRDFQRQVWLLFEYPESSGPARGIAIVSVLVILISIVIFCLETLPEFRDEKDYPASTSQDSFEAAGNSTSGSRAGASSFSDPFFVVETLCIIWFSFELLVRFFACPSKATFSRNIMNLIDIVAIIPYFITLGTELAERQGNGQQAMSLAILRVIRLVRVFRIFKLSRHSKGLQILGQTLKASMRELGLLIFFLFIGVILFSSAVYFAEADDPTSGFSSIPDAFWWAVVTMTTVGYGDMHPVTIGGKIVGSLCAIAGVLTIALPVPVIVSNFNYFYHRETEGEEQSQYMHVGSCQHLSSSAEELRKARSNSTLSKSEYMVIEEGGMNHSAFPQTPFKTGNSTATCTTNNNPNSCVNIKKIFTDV

margatoxin (TIINVKCTSPKQCLPPCKAQFGQSAGAKCMNGKCKCYPH; UniProt P40755 1-39, looked up)
IC50: 0.1 nM
